From patent publication EP1137786B1

Assays:
[1] = target: CCR5 (UniProt P51681); experiment: cell-based or functional assay
[2] = target: CXCR4 (UniProt P61073); experiment: cell-based or functional assay
[3] = target: CCR5 (UniProt P51681); experiment: flow cytometry on L1.2/R5 cells

Chain of CXCR4 (P61073 whole entry): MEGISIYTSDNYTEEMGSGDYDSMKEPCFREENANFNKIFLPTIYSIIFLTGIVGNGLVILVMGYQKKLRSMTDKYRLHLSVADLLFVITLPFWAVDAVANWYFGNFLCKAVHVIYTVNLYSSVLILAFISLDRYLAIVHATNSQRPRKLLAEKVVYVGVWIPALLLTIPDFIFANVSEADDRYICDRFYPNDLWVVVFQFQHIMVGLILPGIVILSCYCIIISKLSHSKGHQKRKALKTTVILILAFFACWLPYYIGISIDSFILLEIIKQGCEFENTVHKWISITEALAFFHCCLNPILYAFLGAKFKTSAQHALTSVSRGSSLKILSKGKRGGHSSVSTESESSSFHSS
Chain of CCR5 (P51681 whole entry): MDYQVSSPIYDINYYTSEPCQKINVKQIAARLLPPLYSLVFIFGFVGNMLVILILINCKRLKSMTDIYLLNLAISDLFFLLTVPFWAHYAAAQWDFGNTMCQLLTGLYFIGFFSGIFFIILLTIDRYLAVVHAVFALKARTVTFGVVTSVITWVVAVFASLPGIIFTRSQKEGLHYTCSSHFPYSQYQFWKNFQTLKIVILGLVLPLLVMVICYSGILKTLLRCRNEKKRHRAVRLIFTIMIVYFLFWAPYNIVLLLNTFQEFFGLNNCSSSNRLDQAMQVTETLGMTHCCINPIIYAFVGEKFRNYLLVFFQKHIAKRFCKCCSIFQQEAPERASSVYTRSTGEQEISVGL

Substance | ID90, neutralization of HIV 89.6 on U373/CD4/CCR5 cells [1] | ID90, neutralization of HIV ADA on U373/CD4/CCR5 cells [1] | ID90, neutralization of HIV BaL on U373/CD4/CCR5 cells [1] | ID90, neutralization of HIV 89.6 on U373/CD4/CXCR4 cells [2] | ID90, neutralization of HIV 2005 on U373/CD4/CXCR4 cells [2] | ID90, neutralization of HIV 2044 on U373/CD4/CXCR4 cells [2] | fold higher concentration needed to approach saturation binding, against FLSC [3]
gp120-CD4-IgG1 chimeric polypeptide (from UniProt P01730 26-208) (Fc fusion) | 3.56 µg/mL | 4.58 µg/mL | 3.1 µg/mL | > 10 µg/mL | > 10 µg/mL | > 10 µg/mL | –
truncated single chain (TcSC) gp120-CD4 chimeric polypeptide (from UniProt P01730 26-208) | – | – | – | – | – | – | 10 fold
